From patent US20200361992A1 (PROTAGONIST THERAPEUTICS, published 2020)
Starred links: 1 amine or outer side, 2 acyl side, 3 side chain; linkers in the order of their positions; H or OH if unused. Positions of bridges follow the written chain, without caps; N, C: chain ends. Non-standard residues stand in square brackets, D forms with d. Groups on a side chain read outwards from the residue. Primed or numbered codes have the meaning given here. *: point of attachment. PEG4′ = bifunctional PEG linker with 4 polyethylene glycol units; PEG12 = NCCOCCOCCOCCOCCOCCOCCOCCOCCOCCOCCOCCOCCC(=O)O; γGlu = O=C(O)[C@H](CCC(=O)[*:2])N[*:1]; Palmitoyl = CCCCCCCCCCCCCCCC(=O)*; Isovaleryl = CC(C)CC(=O)*; hSer = N[C@@H](CCO)C(=O)O; Nle = CCCC[C@H](N)C(=O)O; PEG1′ = not defined here; PEG2′ = not defined here; PEG8′ = not defined here; Ahx = NCCCCCC(=O)O; Sar = CNCC(=O)O

T1: human ferroportin (SLC40A1) fused with GFP, stably expressed in HEK293 cells (human, UniProt Q9NP59 1-571)
T1 sequence (looked up): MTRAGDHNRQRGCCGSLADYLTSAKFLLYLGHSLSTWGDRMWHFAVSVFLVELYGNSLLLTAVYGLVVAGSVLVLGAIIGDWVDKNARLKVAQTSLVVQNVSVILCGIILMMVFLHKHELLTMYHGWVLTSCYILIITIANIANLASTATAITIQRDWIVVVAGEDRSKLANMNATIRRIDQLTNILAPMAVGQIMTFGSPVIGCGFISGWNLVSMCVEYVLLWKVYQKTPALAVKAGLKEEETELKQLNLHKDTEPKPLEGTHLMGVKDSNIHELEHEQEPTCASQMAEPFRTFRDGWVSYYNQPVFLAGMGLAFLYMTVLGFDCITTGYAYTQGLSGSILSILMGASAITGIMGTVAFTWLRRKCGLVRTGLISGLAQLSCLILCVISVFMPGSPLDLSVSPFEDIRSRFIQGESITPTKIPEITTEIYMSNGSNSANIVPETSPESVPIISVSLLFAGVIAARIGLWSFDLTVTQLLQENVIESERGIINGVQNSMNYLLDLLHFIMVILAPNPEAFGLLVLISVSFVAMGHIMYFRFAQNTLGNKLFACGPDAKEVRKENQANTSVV


Biological target: T1, human ferroportin (SLC40A1) fused with …
Test: cell-based or functional assay

Row | Binder | FPN IC50
1 | Isovaleryl-DTHFPCI[dK]FK([PEG2′-Ahx-Palmitoyl])C-NH2 (disulfide 6-11 (inferred)) [Compd ID 29] | 30 nM
2 | Isovaleryl-DTHFPCI[dK]FK([PEG2′-γGlu-Palmitoyl])C-NH2 (disulfide 6-11 (inferred)) [Compd ID 26] | 13 nM
3 | Isovaleryl-DTHFPCI[dK]FK([γGlu-PEG2′-Palmitoyl])C-NH2 (disulfide 6-11 (inferred)) [Compd ID 28] | 23 nM
4 | DTHFPCIKFKPRSKC (Isovaleric acid-DTHFPCIKF-Lys[PEG11-Palm]-PRSKC-NH2) [Compd ID 4] | 32 nM
5 | Isovaleryl-DTHFPCI[dK]FK([γGlu-Palmitoyl])C-NH2 (disulfide 6-11 (inferred)) [Compd ID 27] | 35 nM
6 | Isovaleryl-DTHFPCI[dK]FK(Palmitoyl)C-NH2 (disulfide 6-11 (inferred)) [Compd ID 30] | 31 nM
7 | Isovaleryl-DTHFPCI[hSer]FK([PEG12-Palmitoyl])C-NH2 (disulfide 6-11 (inferred)) [Compd ID 12] | 2 nM
8 | Isovaleryl-DTHFPCIK(Ac)FK([PEG12-Palmitoyl])C-NH2 (disulfide 6-11 (inferred)) [Compd ID 14] | 3 nM
9 | Isovaleryl-DTHFPCIQFK([PEG12-Palmitoyl])C-NH2 (disulfide 6-11 (inferred)) [Compd ID 13] | 4 nM
10 | Isovaleryl-DTHFPCI[Nle]FK([PEG12-Palmitoyl])C-NH2 (disulfide 6-11 (inferred)) [Compd ID 15] | 2 nM
11 | DTHFPCIKFKPRSKGC (Isovaleric acid-DTHFPCIKF-Lys[PEG11-Palm]-PRSKGC-NH2) [Compd ID 3] | 16 nM
12 | Isovaleryl-DTHFPCIKWK([PEG12-Palmitoyl])C-NH2 (disulfide 6-11 (inferred)) [Compd ID 20] | 4 nM
13 | DTHFPCIKFKPC (Isovaleric acid-DTHFPC(SH)I-[Lys]-[Phe]-Lys[PEG11-Palm]-Pro-C(SH)-NH2) [Compd ID 67] | 13 nM
14 | Isovaleryl-DTHFPCI[dK]FK([Ahx-Palmitoyl])C-NH2 (disulfide 6-11 (inferred)) [Compd ID 25] | 11 nM
15 | Isovaleryl-DTHFPCI[dK]FK([PEG1′-Palmitoyl])C-NH2 (disulfide 6-11 (inferred)) [Compd ID 24] | 17 nM
16 | Isovaleryl-DTHFPCI[dK]FK([PEG2′-Palmitoyl])C-NH2 (disulfide 6-11 (inferred)) [Compd ID 23] | 40 nM
17 | Isovaleryl-DTHFPCI[dK]FK([PEG8′-Palmitoyl])C-NH2 (disulfide 6-11 (inferred)) [Compd ID 21] | 30 nM
18 | Isovaleryl-DTHFPCI[dK]FK([PEG4′-Palmitoyl])C-NH2 (disulfide 6-11 (inferred)) [Compd ID 22] | 17 nM

The next lines start with the values.

Row | FPN IC50 | Binder
19 | 9 nM | DTHFPCIKFKC (Isovaleric acid-DTHFPC(SH)I-[Lys]-[Phe]-Lys[PEG11-Palm]-C(SH)-NH2) [Compd ID 69]
20 | 16 nM | Isovaleryl-DTHFPCI[dK]FK([PEG12-Palmitoyl])PPRSCK-NH2 (disulfide 6-15 (inferred); not fully specified) [Compd ID 76]
21 | 12 nM | Isovaleryl-DTHFPCI[dK]FK([PEG12-Palmitoyl])C-NH2 (cysteine pairing not given here) [Compd ID 68]
22 | 22 nM | Isovaleryl-DTHFPCI[dK]FK([PEG12-Palmitoyl])RC-NH2 (disulfide 6-12 (inferred)) [Compd ID 79]
23 | 12 nM | Isovaleryl-DTHFPCI[dK]FK([PEG12-Palmitoyl])PRSC-NH2 (disulfide 6-14 (inferred)) [Compd ID 72]
24 | 9 nM | Isovaleryl-DTHFPCI[dK]FK([PEG12-Palmitoyl])PRSK[Sar]C-NH2 (disulfide 6-16 (inferred)) [Compd ID 74]
25 | 15 nM | Isovaleryl-DTHFPCI[dK]FK([PEG12-Palmitoyl])PRCK-NH2 (disulfide 6-13 (inferred)) [Compd ID 77]
26 | 81 nM | DTHXPCIKFKKC (Isovaleric Acid-D-T-H-[Dpa]-(D)Pro-C-I-(D)Lys-F-[Lys_Peg11_Palm]-(D)Lys-C-NH2) [Compd ID 167]
27 | 17 nM | Isovaleryl-DTHFPCI[dK]FK([PEG12-Palmitoyl])CK-NH2 (disulfide 6-11 (inferred)) [Compd ID 78]
28 | 54 nM | DTHXPCIKFKKC (Isovaleric_Acid-D-T-H-bhPhe-(D)Pro-C-I-(D)Lys-F-[Lys_Peg11_Palm]-(D)Lys-C-NH2) [Compd ID 168]
29 | 14 nM | Isovaleryl-DTHFPCI[dK]FK([PEG12-Palmitoyl])PRSKCK-NH2 (disulfide 6-15 (inferred)) [Compd ID 75]
30 | 11 nM | Isovaleryl-DTHFPCI[dK]FK([PEG12-Palmitoyl])PRSKC-NH2 (disulfide 6-15 (inferred)) [Compd ID 73]
31 | 14 nM | Isovaleryl-DTHFPCI[dK]FK([PEG12-Palmitoyl])KC-NH2 (disulfide 6-12 (inferred)) [Compd ID 80]
32 | 9 nM | Isovaleryl-DTHFPCI[dK]FK([PEG12-Palmitoyl])[dR]C-NH2 (disulfide 6-12 (inferred)) [Compd ID 81]
33 | 5 nM | Isovaleryl-DTHFPCI[dK]FK([PEG12-Palmitoyl])PC-NH2 (disulfide 6-12 (inferred)) [Compd ID 70]
34 | 8 nM | Isovaleryl-DTHFPCI[dK]FK([PEG12-Palmitoyl])PRC-NH2 (disulfide 6-13 (inferred)) [Compd ID 71]
